Test results: paper PMC3964601 (Biochemistry, 2012)
Positions count from the first letter of the chain named. Names and notes keep the numbering of the source. Read-outs that look alike come from different tables or passages of the source.

B1: Pyrococcus furiosus RNase P protein RPP29 (natural protein)
chain: MWRNSEERENRTSGRSQGSYQEIIGRTWIFRGAHRGRVNKKNIVWHELIGLKVRVVNSTHPGYVGIEGYVIDETRNMLVIAGENKVWKVPKDVCIFEFETWDGTKIKISGEKLVGRPEMRLKKRWRK
B2: Pyrococcus furiosus RNase P protein RPP21 (natural protein)
chain: MAKYNEKKEKKRIAKERIDILFSLAERVFPYSPELAKRYVELALLVQQKAKVKIPRKWKRRYCKKCHAFLVPGINARVRLRQKRMPHIVVKCLECGHIMRYPYIKEIKKRRKEKMEY
B3: Pyrococcus furiosus RPP21/A14V (natural protein)
chain: B2 chain with A14V

Legend:
Assay in all cases: ITC
[1] = target: B2
[2] = target: B2; remark: listed apart in the source
[3] = target: B2; remark: listed apart in the source
[4] = target: B2; remark: listed apart in the source
[5] = target: B2; remark: listed apart in the source
[6] = target: B2; remark: listed apart in the source
[7] = target: B2; remark: listed apart in the source
[8] = target: B2; remark: listed apart in the source
[9] = target: B2; remark: listed apart in the source
[10] = target: B2; remark: listed apart in the source
[11] = target: B2; remark: listed apart in the source
[12] = target: B1
[13] = target: B1; remark: listed apart in the source
[14] = target: B1; remark: listed apart in the source
[15] = target: B1; remark: listed apart in the source
[16] = target: B1; remark: listed apart in the source
[17] = target: B1; remark: listed apart in the source
[18] = target: B1; remark: listed apart in the source
[19] = target: B1; remark: listed apart in the source
[20] = target: B1; remark: listed apart in the source

Binder: B1
- dH [1]: 17.1 kcal/mol
- stoichiometry N [1]: 0.956 RPP29 per RPP21
- dH [2]: -34.3 kcal/mol
- dH [3]: 11.6 kcal/mol
- stoichiometry N [3]: 1.01 RPP29 per RPP21
- dH [4]: -37.6 kcal/mol
- dH [5]: 5.95 kcal/mol
- stoichiometry N [5]: 0.9 RPP29 per RPP21
- dH [6]: -5.19 kcal/mol
- stoichiometry N [6]: 0.986 RPP29 per RPP21
- dH [7]: -32 kcal/mol
- stoichiometry N [7]: 0.97 RPP29 per RPP21
- dH [8]: -23.5 kcal/mol
- stoichiometry N [8]: 1 RPP29 per RPP21
- dH [9]: -43 kcal/mol
- dH [10]: -10.2 kcal/mol
- stoichiometry N [10]: 0.998 RPP29 per RPP21
- dH [11]: -15.8 kcal/mol
- stoichiometry N [11]: 1.03 RPP29 per RPP21

Binder: B2
- Ka [12]: 9.17e+06 M⁻¹
- Ka [13]: 1.09e+07 M⁻¹
- Ka [14]: 9.55e+06 M⁻¹
- Ka [15]: 3.32e+07 M⁻¹
- Ka [16]: 2.04e+06 M⁻¹
- Ka [17]: 1.07e+07 M⁻¹
- Ka [18]: 2.01e+07 M⁻¹
- Ka [19]: 1.71e+07 M⁻¹

Binder: B3
- binding result [20]: binds
